Test results as given in article PMC10966353.

Target: A/Puerto Rico/8/1934 hemagglutinin with an N-terminal sfGFP, GCN4-pII trimerization motif and Strep-tag II (influenza A virus A/Puerto Rico/8/1934)
Experiment: negative stain electron microscopy

A/Puerto Rico/8/1934 hemagglutinin with an N-terminal sfGFP, GCN4-pII trimerization motif and Strep-tag II
stoichiometry N: 3
